Binding result, Kd and binding signal data for 5 molecules are collected here from paper PMC2887947.

Like-named read-outs stand apart in the source and are kept apart here.

What all share (test): EMSA
(In general: A gel shift assay detects complexes by their altered migration in electrophoresis.)

Series [1] deals with T1, E. coli H-NS (Escherichia coli, UniProt P0ACF8 1-137).
T1 sequence: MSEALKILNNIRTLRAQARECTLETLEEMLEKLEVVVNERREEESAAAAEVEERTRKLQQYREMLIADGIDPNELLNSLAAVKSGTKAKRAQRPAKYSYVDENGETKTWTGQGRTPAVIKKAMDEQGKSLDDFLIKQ

For series [2], the target named is T2, M. tuberculosis H-NS (Mycobacterium tuberculosis H37Rv, UniProt I6YHB0 1-134).
T2 sequence: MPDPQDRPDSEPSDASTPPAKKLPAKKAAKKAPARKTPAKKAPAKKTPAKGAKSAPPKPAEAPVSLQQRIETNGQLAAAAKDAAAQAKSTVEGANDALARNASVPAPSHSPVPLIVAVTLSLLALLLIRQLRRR

Series [3] addresses T2, M. tuberculosis H-NS. The source holds these as a separate data set.
Series [4] has as its target T1, E. coli H-NS. The source holds these as a separate data set.
The target of series [5] is T2, M. tuberculosis H-NS. This is another data set of the same source.
The target in series [6] is T2, M. tuberculosis H-NS. This is another data set of the same source.

B1: Holliday junction (HJ) (structured_DNA)
DNA 1: GCCGTGATCACCAATGCAGATTGACGAACCTTTGCCCACGT
DNA 2: GACGTGGGCAAAGGTTCGTCAATGGACTGACAGCTGCATGG
DNA 3: GCCATGCAGCTGTCAGTCCATTGTCATGCTAGGCCTACTGC
DNA 4: GGCAGTAGGCCTAGCATGACAATCTGCATTGGTGATCACGG
The term Kd denotes the concentration at which binding is half-saturated. Regarding B1, the binding result with E. coli H-NS [1] is on record as “binds”. In the series with M. tuberculosis H-NS [2], this molecule yielded a Kd of around 32 nM.

B2: Y-shaped junction (structured_DNA)
DNA 1: B1 DNA 2
DNA 2: B1 DNA 3
On to B2, for which, in the series with M. tuberculosis H-NS [3], the binding signal is around 7 fold higher Kd than HJ.

B3: DNA replication fork (structured_DNA)
DNA 1: B1 DNA 2
DNA 2: B1 DNA 3
DNA 3: GCAGTAGGCCTAGCATGA
DNA 4: CGAACCTTTGCCCACGTC
In the case of B3, the binding result with E. coli H-NS [4] is given as “binds”. This molecule also yielded a binding signal with M. tuberculosis H-NS [5] of around 6 fold higher Kd than HJ.

B4: dsDNA 70% GC (83 bp) (dsDNA)
DNA 1: GCGGTGGACGGCTGGGTCGGGTGGTGAGTGGGTTGCGATGGAGGTGGTGGGCTAGGGGGCTTAGGGGGGAGTCGGTGGTGG
DNA 2: CCACCACCGACTCCCCCCTAAGCCCCCTAGCCCACCACCTCCCATCGCCAACCCACTCACCACCCGACCCAGCCGTCCACCGC
On to B4, for which the binding signal with M. tuberculosis H-NS [6] was ~3 fold higher concentration for 50% binding than 40% GC dsDNA.

B5: dsDNA 40% GC (83 bp) (dsDNA)
DNA 1: GTACTATACGGTTGTACAGTGTTGTTAGTGAGTTGAAGATTGGAAGTAGTTTGCTAGGTGTCTTAGGAGAGAATCGTTAGTGT
DNA 2: ACACTAACGATTCTCTCCTAAGACACCTAGCAAACTACTTCCAATCTTCAACTCACTAACAACACTGTACAACCGTATAGATC
For B5, the binding result in the series with M. tuberculosis H-NS [2] was “binds”.
